Measurements reported in paper PMC7591920 (Nature Communications, 2020).
Bridge positions count the residues as written; N and C are the ends. Square brackets hold non-standard residues; d marks the D form. Primed or numbered codes have the meaning given here. Ends that are not written are not given here. * marks the point of attachment. FITC = O=C1OC2(c3ccc(O)cc3Oc3cc(O)ccc32)c2ccc(NC(=S)*)cc21; PEG2′ = not defined here; Peg = not defined here; AEEA = NCCOCCOCC(=O)O

B1: FITC-labelled peptide 4E (peptide)
peptide: {FITC-Peg}-SVEDHFAKALGDTWLQIKAA
modifications: lactam 3-18; reading uncertain
notes: macrocyclic VGL4 two-helix motif 4E; numbers count on: mouse VGL4 as in PDB 4LN0; Rink amide resin: C-terminal amide surmised; also called 4E (FITC-Peg); source: synthetic peptide
B2: FITC-labelled peptide 7 (Tat-PEG2-4E) (peptide)
peptide: GRKKRRQRRRPQ[PEG2′]SVEDHFAKALGDTWLQIKAA
modifications: not fully specified (some residues); also: FITC label, place not given here
notes: also called 7 (FITC-Peg); source: synthetic peptide
B3: FITC-labelled VGL4(203-256) (peptide)
peptide: DPVVEEHFRRSLGKNYKEPEPAPNSVSITGSVDDHFAKALGDTWLQIKAAKDSA
modifications: also: FITC label, place not given here
notes: numbers count on: mouse VGL4 as in PDB 4LN0; also called FITC-VGL4
B4: peptide 25 (alanine scan of 4E), acetylated (peptide)
peptide: Ac-SVEDHFAKALGDTWLAIKAA
modifications: lactam 3-18
notes: macrocyclic VGL4 two-helix motif 4E with one alanine; numbers count on: mouse VGL4 as in PDB 4LN0; Synthesised on Rink amide resin: C-terminal amide surmised; source: synthetic peptide
B5: peptide 21 (alanine scan of 4E), acetylated (peptide)
peptide: Ac-SVEDHFAKALGATWLQIKAA
modifications: lactam 3-18
notes: as for B4
B6: peptide 20 (alanine scan of 4E), acetylated (peptide)
peptide: Ac-SVEDHFAKAAGDTWLQIKAA
modifications: lactam 3-18
notes: as for B4
B7: peptide 26 (alanine scan of 4E), acetylated (peptide)
peptide: Ac-SVEDHFAKALGDTWLQAKAA
modifications: lactam 3-18
notes: as for B4
B8: peptide 18 (alanine scan of 4E), acetylated (peptide)
peptide: Ac-SVEDHAAKALGDTWLQIKAA
modifications: lactam 3-18
notes: as for B4
B9: peptide 14 (alanine scan of 4E), acetylated (peptide)
peptide: Ac-AVEDHFAKALGDTWLQIKAA
modifications: lactam 3-18
notes: as for B4
B10: peptide 24 (alanine scan of 4E), acetylated (peptide)
peptide: Ac-SVEDHFAKALGDTWAQIKAA
modifications: lactam 3-18
notes: as for B4
B11: peptide 16 (alanine scan of 4E), acetylated (peptide)
peptide: Ac-SVEAHFAKALGDTWLQIKAA
modifications: lactam 3-18
notes: as for B4
B12: peptide 19 (alanine scan of 4E), acetylated (peptide)
peptide: Ac-SVEDHFAAALGDTWLQIKAA
modifications: lactam 3-18
notes: as for B4
B13: peptide 17 (alanine scan of 4E), acetylated (peptide)
peptide: Ac-SVEDAFAKALGDTWLQIKAA
modifications: lactam 3-18
notes: as for B4
B14: peptide 15 (alanine scan of 4E), acetylated (peptide)
peptide: Ac-SAEDHFAKALGDTWLQIKAA
modifications: lactam 3-18
notes: as for B4
B15: peptide 4, acetylated (two-helix motif of VGL4) (peptide)
peptide: Ac-SVDDHFAKALGDTWLQIKAA
notes: VGL4 two-helix motif (helices alpha2/alpha3); Synthesised on Rink amide resin: C-terminal amide surmised; source: synthetic peptide
B16: VGL4(203-256), acetylated (peptide 1) (peptide)
peptide: Ac-DPVVEEHFRRSLGKNYKEPEPAPNSVSITGSVDDHFAKALGDTWLQIKAAKDSA
notes: numbers count on: mouse VGL4 as in PDB 4LN0; Synthesised on Rink amide resin: C-terminal amide surmised (masses fit); also called hVGL4(203-256); source: synthetic peptide
B17: peptide 4E(open), acetylated (peptide)
peptide: Ac-SVEDHFAKALGDTWLQIKAA
notes: VGL4 two-helix motif with E at 235, not cyclised; numbers count on: mouse VGL4 as in PDB 4LN0; Synthesised on Rink amide resin: C-terminal amide surmised; also called linear version of 4E; source: synthetic peptide
B18: peptide 22 (alanine scan of 4E), acetylated (peptide)
peptide: Ac-SVEDHFAKALGDAWLQIKAA
modifications: lactam 3-18
notes: as for B4
B19: peptide 23 (alanine scan of 4E), acetylated (peptide)
peptide: Ac-SVEDHFAKALGDTALQIKAA
modifications: lactam 3-18
notes: as for B4
B20: peptide 7, acetylated (Tat-PEG2-4E) (peptide)
peptide: Ac-GRKKRRQRRRPQ[AEEA]SVEDHFAKALGDTWLQIKAA-NH2
modifications: lactam 16-31; not fully specified (some residues)
notes: cell-penetrating Tat peptide; macrocyclic VGL4 two-helix motif 4E; numbers count on: mouse VGL4 as in PDB 4LN0; The two parts are joined by a PEG2 unit that is no amino acid; Rink amide resin: C-terminal amide surmised; source: synthetic peptide
B21: YAP(50-100) (peptide, UniProt P46937 50-100, looked up)
peptide: AGHQIVHVRGDSETDLEALFNAVMNPKTANVPQTVPMRLRKLPDSFFKPPE
notes: yes-associated protein YAP, residues 50-100
B22: VGL4(203–256), full-length VGL4-derived TEAD binding sequence (peptide 1) (peptide, UniProt Q80V24 203-256, looked up)
peptide: B3 peptide
notes: mouse and human VGL4 are said to be identical in this stretch; Made on Rink amide resin, so probably a C-terminal amide; source: synthetic peptide (Fmoc solid-phase synthesis, RP-HPLC purified)

Each binder was assayed against T1, GST-hTEAD1(209-426) (human, UniProt P28347 209-426) (assay: fluorescence polarisation; direct: FITC-labelled peptide (10 nM) titrated with hTEAD1 or mTEAD4; 10 mM HEPES, 150 mM NaCl, 0.1% Tween-20, pH 7.4; read after 1 h). Details: both partners purified.
T1 construct: A 3C protease site stands between tags and protein; also called human TEAD1; source: E. coli BL21 DE3 RIL, purified (His Trap, SEC); not shown: GST, N-terminal, kept
T1 sequence (P28347 209-426): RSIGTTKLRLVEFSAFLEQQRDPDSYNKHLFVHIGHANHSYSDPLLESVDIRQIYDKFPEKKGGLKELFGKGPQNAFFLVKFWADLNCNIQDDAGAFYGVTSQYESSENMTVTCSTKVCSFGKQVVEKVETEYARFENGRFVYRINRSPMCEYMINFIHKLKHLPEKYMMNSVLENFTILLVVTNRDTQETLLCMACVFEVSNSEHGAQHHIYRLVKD

In order of rising Kd:
1. B2  147 ± 70 nM
2. B1  168 ± 37 nM

Each binder was assayed against T2, mouse TEAD4(210-427) (mouse, UniProt Q62296 210-427) in the same assay as above. Details: both partners purified.
T2 construct: mouse TEAD4, residues 210-427; The tag was cleaved with 3C protease only for the crystallisation; nothing is said for SPR and FP; also called mTEAD4; source: E. coli BL21 DE3 RIL, purified (His Trap, SEC)
T2 sequence (Q62296 210-427): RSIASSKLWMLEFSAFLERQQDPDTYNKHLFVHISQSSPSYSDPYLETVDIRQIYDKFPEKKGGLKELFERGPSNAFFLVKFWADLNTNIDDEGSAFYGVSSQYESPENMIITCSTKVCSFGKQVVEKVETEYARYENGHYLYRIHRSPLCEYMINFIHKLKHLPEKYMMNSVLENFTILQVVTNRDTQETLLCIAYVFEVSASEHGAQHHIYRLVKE

In order of rising Kd:
1. B1  32 ± 5 nM
2. B2  51 ± 5 nM

Molecular target: T1, GST-hTEAD1(209-426)
Test: as above
Details: both partners purified
Remark: another data set of the same source

Work on B3 yielded a Kd of 17 ± 2.5 nM.

Molecular target: T2, mouse TEAD4(210-427)
Test: as above
Details: both partners purified
Remark: another data set of the same source

B3 gave a Kd of 9.2 ± 0.6 nM.

These binders were tested against T2, mouse TEAD4(210-427) (assay: fluorescence polarisation; competition: acetylated peptide titrated (50 µM-6 pM) against mTEAD4 (400 nM) with a FITC-labelled tracer peptide (10 nM; tracer not named); read after 1 h). Details: both partners purified.

Going from B4 to B5, the IC50 rises from 60 ± 10 nM to greater than 100000 nM.

First: B6
Second: B7
The IC50 of the first is higher: greater than 100000 nM for the first, 7400 ± 6100 nM for the second.

Going from B8 to B9, the IC50 falls from greater than 50000 nM to 6100 ± 4300 nM. The second is the more potent here.

Going from B10 to B11, the IC50 rises from 100 ± 10 nM to 3000 ± 760 nM (30-fold).

Compared with B12, B13 is higher in IC50: 280 ± 90 nM for the first, greater than 100000 nM for the second.

Binder B14 has an IC50 of 2100 ± 560 nM.

Each binder was assayed against T1, GST-hTEAD1(209-426) (assay: SPR; GST-hTEAD1 or mTEAD4 amine-coupled to a CM5 chip (10 mM MES pH 6.4), peptides as analytes; 10 mM HEPES, 150 mM NaCl, 0.05% Tween-20, pH 7.4, 20 °C, 30 µL/min; steady-state fit, 1:1 model). Details: both partners purified.

With B15 the Kd was 830 ± 780 nM.

The binders below were run against T2, mouse TEAD4(210-427) in the same assay as above. Details: both partners purified.

B15 gave a Kd of 1500 ± 1000 nM.

Molecular target: T1, GST-hTEAD1(209-426)
Test: as above
Details: both partners purified
Remark: another data set of the same source

B16 was tested, and the Kd was 4300 nM.

Molecular target: T2, mouse TEAD4(210-427)
Test: as above
Details: both partners purified
Remark: another data set of the same source

In the case of B16, the Kd is reported as 3100 nM.

Molecular target: T1, GST-hTEAD1(209-426)
Test: as above
Details: both partners purified
Remark: another data set of the same source

Work on B17 yielded a Kd of 3100 nM.

Molecular target: T2, mouse TEAD4(210-427)
Test: as above
Details: both partners purified
Remark: another data set of the same source

B17 was tested, and the Kd was 2400 nM.

Molecular target: T1, GST-hTEAD1(209-426)
Test: as above
Details: both partners purified
Remark: another data set of the same source

Going from B4 to B5, the Kd rises from 750 ± 120 nM to greater than 100000 nM. The first binds more tightly here.

Compared with B6, B18 is lower in Kd: greater than 100000 nM for the first, 91000 ± 14000 nM for the second. The second binds more tightly here.

Compared with B7, B8 is higher in Kd: 2700 ± 1070 nM for the first, greater than 100000 nM for the second.

B9 and B10 are within 1.5-fold of each other in Kd: 1500 ± 20 nM for the first, 1100 ± 60 nM for the second.

Going from B11 to B12, the Kd rises from 740 ± 460 nM to 1700 ± 10 nM (2.3-fold). The first binds more tightly here.

Going from B13 to B14, the Kd falls from greater than 100000 nM to 1000 ± 370 nM. The second binds more tightly here.

In the case of B19, the Kd is reported as 7800 ± 150 nM.

Molecular target: T2, mouse TEAD4(210-427)
Test: as above
Details: both partners purified
Remark: another data set of the same source

Going from B4 to B5, the Kd rises from 1300 ± 110 nM to greater than 100000 nM.

Compared with B6, B7 is lower in Kd: greater than 100000 nM for the first, 4400 ± 1350 nM for the second.

First: B8
Second: B9
The Kd of the first is higher: greater than 100000 nM for the first, 2700 ± 250 nM for the second. The second binds more tightly here.

B10 and B11 are within error of each other in Kd: 2000 ± 140 nM for the first, 1600 ± 690 nM for the second.

First: B12
Second: B13
The Kd of the first is lower: 2800 ± 60 nM for the first, greater than 100000 nM for the second. The first binds more tightly here.

In the case of B14, the Kd is reported as 1500 ± 370 nM.

Molecular target: T1, GST-hTEAD1(209-426)
Test: as above
Details: both partners purified
Remark: another data set of the same source

In the case of B20, the Kd is reported as 830 ± 780 nM.

Molecular target: T2, mouse TEAD4(210-427)
Test: as above
Details: both partners purified
Remark: another data set of the same source

With B20 the Kd was 1500 ± 1000 nM.

Molecular target: T2, mouse TEAD4(210-427)
Test: as above
Details: both partners purified
Remark: another data set of the same source

B21 gave a Kd of 700 nM.

Each binder was assayed against T3, mouse TEAD4(210–427), as purified (SPR) (mouse, UniProt Q62296 210-427) (assay: SPR; GST-hTEAD1 and mTEAD4 covalently tethered (NHS/EDC) on CM5 chips, 2000–3000 RU; peptides as analytes, threefold dilutions, typically 30 µM top concentration; 10 mM HEPES, 150 mM NaCl, 0.05% Tween-20, pH 7.4, 0.3% DMSO, 20 °C; steady-state fit, 1:1 model). Details: both partners purified.
T3 construct: cDNA fused with a 6x His-tag and a 3C protease cleavage site in pOPIN S; No tag cleavage is told for the protein used in SPR; cleavage is told only for the crystallised complex; also called mTEAD4; source: E. coli BL21 DE3 RIL, purified (His Trap, SEC)
T3 sequence (Q62296 210-427): as above

With B22 the Kd was 2000 nM.
